Experimental findings from patent US20250368684A1, “NEW EGFRVIII-BINDING PEPTIDES, CONJUGATES AND USES THEREOF” (NANOTHERA BIOSCIENCES, INC., priority 2021, published 2025) are described below.

In assay [1] the target is T1, hEGFRvIII (Homo sapiens, UniProt P00533, DELINS30-297G).
T1 construct: using purified and active extracellular domain for EGFRvIII protein; purchased Sino Biological
Briefly: Phage display biopanning against hEGFRvIII with NGS enrichment analysis. The class given is binding. The conditions noted are these: over rounds of biopanning. The procedure:
Ph.D.-12™ Phage Display Peptide Library Kit was purchased from New England Biolabs Inc. (Beverly, MA, USA). Biopanning procedures were done according to the manufacturer's instruction with certain modifications. Briefly, a 96-well plate was coated with 150 μL hEGFRvIII (Sino Biological) (in the first two rounds at 100 μg/mL, the third round at 10 μg/mL) overnight at 4° C. Wells were washed with PBS, blocked with blocking buffer (3% BSA in PBS), washed six times with cold PBST (PBS+0.1% [v/v] Tween-20), then incubated with […] phage peptide library Ph.D.-12 for 2 hours at RT. […]
The NGS data analysis is an imperative approach to filter out all the non-specific binders and identify the putative binders. In addition, NGS also allows us to perform deeper quantitative analysis, such as calculating the frequency of amino acids distribution in each position of the peptide sequence, consensus motif and target unrelated peptides. […] This is highly useful as we can follow how the read of a peptide evolves or changes with the rounds of biopanning. […] The total number of sequences and the corresponding number of reads for each DNA sequence are recorded in a separate CSV file. […] Due to codon degeneracy, different codons can translate into same amino acids, thus after translation identical sequences exist with different reads. […]

The target in assay [2] is T2, human EGF receptor variant III (EGFRvIII) on CLTH/EGFRvIII cells (human, UniProt P00533 25-1210).
T2 construct: whole, on cells
The experiment in a line: flow cytometry, normalized MFI on EGFRvIII cells over normalized MFI on EGFR WT cells. The procedure: On FITC-Ahx-peptides. Flow cytometry analysis was also performed to quantitatively analyze the binding affinity of the synthetized peptides to the different cell types. […] The next day, cells were treated with FITC-Ahx-peptides using a stock solution in pure DMSO at 5 mM to reach a final concentration of 10 µM (final percentage of DMSO of 0.2%). Plates were incubated for 20 min at RT. Cells were detached from the plates by a PBS fush, transferred to FACS tubes and washed 2 times with 4 mL of PBS. Cells were stained with LIVE/DEAD™ Fixable Near-IR Dead Cell Stain Kit (Thermofisher) as a viability marker. Cells were analyzed by flow cytometry on a MACSQuant Analyser 16 (Miltenyi Biotec) using the MACS Quantify software to acquire and process the data. LIVE/DEAD™ Fixable dye was excited at 640 nm and fluorescence was collected with the 785/62 nm filter. FITC was excited at 488 nm and fluorescence was collected with the 525/50 nm filter. Viable cells were gated, FITC fluorescence intensity was recorded and the mean fluorescence intensity (MFI) was measured. MFI values were then normalized by substracting MFI from blank cells and dividing by the correction factor determined using a spectrofluorimeter.

*: point of attachment. FITC = O=C1OC2(c3ccc(O)cc3Oc3cc(O)ccc32)c2ccc(NC(=S)*)cc21; Ahx = NCCCCCC(=O)O

Regarding “NPIVRSAEDGQL (Negative hit peptide) [negative hit peptide from biopanning]”, the “enrichment on NGS” value in assay [1] is listed as “didn't show any significant enrichment”.

B1: FITC-Ahx-YHWYGYTPENVI-CONH2 (peptide)
peptide: {FITC-Ahx}-YHWYGYTPENVI-NH2
SMILES: CC[C@H](C)[C@H](NC(=O)[C@@H](NC(=O)[C@H](CC(N)=O)NC(=O)[C@H](CCC(=O)O)NC(=O)[C@@H]1CCCN1C(=O)[C@@H](NC(=O)[C@H](Cc1ccc(O)cc1)NC(=O)CNC(=O)[C@H](Cc1ccc(O)cc1)NC(=O)[C@H](Cc1c[nH]c2ccccc12)NC(=O)[C@H](Cc1c[nH]cn1)NC(=O)[C@H](Cc1ccc(O)cc1)NC(=O)CCCCCNC(=S)Nc1ccc2c(c1)C(=O)OC21c2ccc(O)cc2Oc2cc(O)ccc21)[C@@H](C)O)C(C)C)C(N)=O
B1: in assay [2], the “Normalized MFI ratio vIII/WT” value came to 2.1.
